{
  "source": "patent US8497352B2",
  "about": "“Use of Wnt5-α peptide derivates for the treatment of melanoma and gastric cancer” (Wntresearch AB, priority 2008, dated 2013)",
  "key": {"[1]": {"test_system": "Wnt-5a-induced Ca^2+ signaling", "assay": "Determination of cytosolic free calcium levels (fura-2) in A2058 cells", "type": "cell-based, human", "details": "0.1 μg/ml Wnt-5a", "procedure": "Cells grown on a glass cover slip were incubated with 4 μM fura-2/AM in culture medium for 30 minutes at 37° C. (Dejmek et al., 2006). After fura-2 loading of the cells, the cover slips were washed and mounted in a specially designed chamber to which was added a calcium-containing medium (136 mM NaCl, 4.7 mM KCl, 1.2 mM MgSO4, 1.1 mM CaCl2, 1.2 KH2PO4, 5 mM NaHCO3, 5.5 mM glucose and 20 mM Hepes, pH 7.4). The chamber was then placed in a system consisting of a NIKON Diaphot microscope connected to a Photon Technology International (PTI) imaging system. The cells were first allowed to rest for 10 minutes before any stimulation was performed. Fura-2 fluorescence was then recorded continuously from the cells before and after the stimulations with either Wnt-5a, endothelin-1 or charbacol (as indicated in the legend to FIG. 8) using an excitation wavelength rapidly alternating between 340 and 380 nm, while the emission wavelength was set at 510 nm. The fluorescence intensity ratios (340/380 nm) were subsequently calculated and analyzed using the PTI Image Master Software. Statistical analysis—The Student's t-test for unpaired samples was used to analyze differences in the experiments, where *=p<0.05, **=p<0.01, and ***=p<0.001"}, "A2058 melanoma cells": {"test_system": "A2058 melanoma cells", "assay": "Wound-healing assay (migration), A2058 cells", "type": "cell-based, human", "details": "0.2 μg/ml Wnt-5a, serum-free medium", "procedure": "Cells were plated in 12 well plates and allowed to grow into a confluent layer in complete RPMI (for A2058 cells) or complete McCoy's 5A medium (for HTB63 cells). As indicated, cells were pre-incubated with the Box5 peptide (100 μM) or control solvent for 40 min with continuous agitation. A wound was then inflicted by making a scratch through the confluent layer of cells with a pipette tip. During the migration period of the assay, cells were incubated either in serum-free medium or in the case of HTB63 cells in their own serum-free-conditioned medium collected from cells cultured for 48 h and used within 2 days after collection. The exact conditions of each experiment are described above. To avoid loss of activity, cell medium was changed after 24 hours. A picture for each scratch was taken in the same area of cells at 0, 16, 24, 40 and 48 hours, and wound healing was measured as percentage of wound area closed. For each experimental condition wound healing was analysed in triplicate. All data were based on 3 to 8 separate experiments as indicated."}},
  "data": [
    {"molecule": "Wnt-5a: human recombinant Wnt-5a protein from R&D Systems (protein, UniProt P41221 62-380, looked up) Protein Wnt-5a: IIGAQPLCSQLAGLSQGQKKLCHLYQDHMQYIGEGAKTGIKECQYQFRHRRWNCSTVDNTSVFGRVMQIGSRETAFTYAVSAAGVVNAMSRACREGELSTCGCSRAARPKDLPRDWLWGGCGDNIDYGYRFAKEFVDARERERIHAKGSYESARILMNLHNNEAGRRTVYNLADVACKCHGVSGSCSLKTCWLQLADFRKVGDALKEKYDSAAAMRLNSRGKLVQVNSRFNSPTTQDLVYIDPSPDYCVRNESTGSLGTQGRLCNKTSEGMDGCELMCCGRGYDQFKTVQTERCHCKFHWCCYVKCKKCTEIVDQFVCK", "values": [
      {"measurement": "Cytosolic Ca^2+ signal in A2058 cells", "setting": "[1]", "value": "triggers a rapid cytosolic Ca^2+ signal"},
      {"measurement": "Effect on migration of A2058 cells", "setting": "A2058 melanoma cells", "value": "increased"}
    ]}
  ]
}
